The target of series [1] is DPP IV from P. gingivalis (Porphyromonas gingivalis). Briefly: cell-based or functional assay.

The substance Ala-Gly-Pro (peptide) registered a Residual activity of DPP IV, % (inhibitor at 10 mM) in series [1] of 1%.

Val-Pro (peptide): in series [1], the Residual activity of DPP IV, % (inhibitor at 10 mM) is 0%.

Consider Ala-Pro (peptide), for which, in series [1], the Residual activity of DPP IV, % (inhibitor at 10 mM) was determined as 30%.

Turning to DPP IV from P. gingivalis, the Cleavage site entry in the series with Peptide 23 is given as “H-Ser-Pro-↑-Tyr-Ser-Ser-Asp-Thr-Thr”.

The values are drawn from patent US6875851.
